For one data set, the target named is T1, PilQ25-354 (Neisseria meningitidis M1080, UniProt Q9JVW4 25-354).
T1 sequence: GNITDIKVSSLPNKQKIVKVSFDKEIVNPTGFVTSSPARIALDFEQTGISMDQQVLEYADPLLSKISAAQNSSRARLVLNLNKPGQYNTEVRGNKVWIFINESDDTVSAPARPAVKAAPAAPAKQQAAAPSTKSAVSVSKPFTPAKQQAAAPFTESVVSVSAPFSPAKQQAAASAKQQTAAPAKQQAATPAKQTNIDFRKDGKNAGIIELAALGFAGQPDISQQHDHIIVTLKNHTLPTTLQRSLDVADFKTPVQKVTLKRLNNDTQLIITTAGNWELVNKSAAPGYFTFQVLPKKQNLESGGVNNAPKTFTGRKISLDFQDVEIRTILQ
Briefly: EMSA; 5 mM Mg2+; EMSA: 50 mM MOPS pH 7.5, 1 mM EDTA, 1 mM DTT, 5 mM MgCl2, 5% glycerol, 200 ng protein in 10 ul, 20 min room temperature; 6% PAGE. The note with it: protein: recombinant, tags: His (N-terminal with pQE30), label: 5' 32P. In general terms: Mobility shift assays separate free from complexed probe on a gel.

Another data set deals with T2, PilQ25-132 (Neisseria meningitidis M1080, UniProt Q9JVW4 25-132).
T2 sequence: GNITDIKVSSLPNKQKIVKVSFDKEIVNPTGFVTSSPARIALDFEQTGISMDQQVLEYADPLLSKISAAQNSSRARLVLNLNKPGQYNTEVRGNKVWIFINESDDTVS
The description is as above. The note with it: protein: recombinant, tags: His, label: 5' 32P.

The target of the next data set is T3, PilQ352-761 (Neisseria meningitidis M1080, UniProt Q9JVW4 352-761).
T3 sequence: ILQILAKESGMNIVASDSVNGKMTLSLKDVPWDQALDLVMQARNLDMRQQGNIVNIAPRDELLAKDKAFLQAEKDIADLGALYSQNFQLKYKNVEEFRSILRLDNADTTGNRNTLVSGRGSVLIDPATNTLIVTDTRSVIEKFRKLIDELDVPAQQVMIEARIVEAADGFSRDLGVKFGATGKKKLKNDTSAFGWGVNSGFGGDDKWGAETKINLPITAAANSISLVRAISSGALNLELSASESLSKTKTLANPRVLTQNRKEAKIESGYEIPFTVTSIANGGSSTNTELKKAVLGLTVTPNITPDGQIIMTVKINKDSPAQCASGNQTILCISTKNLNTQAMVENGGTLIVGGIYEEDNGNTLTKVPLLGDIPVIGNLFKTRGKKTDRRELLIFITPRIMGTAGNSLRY
Described as above. The note with it: protein: recombinant, tags: His (C-terminal with pET28b), label: 5' 32P.

In a further data set the target is T4, PilQ218-478 (Neisseria meningitidis M1080, UniProt Q9JVW4 218-478).
T4 sequence: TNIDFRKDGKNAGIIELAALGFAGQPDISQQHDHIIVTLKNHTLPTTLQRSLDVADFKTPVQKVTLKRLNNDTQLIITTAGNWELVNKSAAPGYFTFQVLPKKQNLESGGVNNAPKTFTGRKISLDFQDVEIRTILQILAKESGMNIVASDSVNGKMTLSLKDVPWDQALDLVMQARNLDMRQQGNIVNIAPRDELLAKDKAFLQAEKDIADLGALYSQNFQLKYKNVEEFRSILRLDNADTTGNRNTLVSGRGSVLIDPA
The data set is described as above. The note with it: protein: recombinant, tags: His (N-terminal with pQE30), label: 5' 32P.

Data set [1] has as its target T5, PilQ complex (native secretin) (Neisseria meningitidis M1080, UniProt Q9JVW4 25-761).
T5 sequence: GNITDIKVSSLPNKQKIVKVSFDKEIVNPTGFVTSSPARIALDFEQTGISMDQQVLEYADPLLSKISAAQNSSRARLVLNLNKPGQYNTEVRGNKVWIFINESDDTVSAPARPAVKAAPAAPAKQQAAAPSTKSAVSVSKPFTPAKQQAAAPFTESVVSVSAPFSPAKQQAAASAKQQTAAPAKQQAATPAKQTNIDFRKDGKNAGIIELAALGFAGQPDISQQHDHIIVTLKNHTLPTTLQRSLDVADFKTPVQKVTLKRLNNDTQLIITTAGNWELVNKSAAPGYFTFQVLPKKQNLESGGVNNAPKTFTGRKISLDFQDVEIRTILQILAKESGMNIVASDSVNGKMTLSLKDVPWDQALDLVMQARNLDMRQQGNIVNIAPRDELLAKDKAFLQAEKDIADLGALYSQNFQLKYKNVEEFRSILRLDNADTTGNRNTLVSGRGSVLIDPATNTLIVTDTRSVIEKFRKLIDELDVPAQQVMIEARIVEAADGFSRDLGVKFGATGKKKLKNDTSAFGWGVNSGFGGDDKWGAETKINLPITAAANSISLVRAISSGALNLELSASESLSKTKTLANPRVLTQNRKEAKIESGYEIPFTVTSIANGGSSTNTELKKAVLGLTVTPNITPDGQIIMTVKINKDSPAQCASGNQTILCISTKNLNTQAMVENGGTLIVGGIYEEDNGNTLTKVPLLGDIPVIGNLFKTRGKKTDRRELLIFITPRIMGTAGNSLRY
Briefly: Southwestern; whole-cell lysate, PilQ multimer band; EMSA: 50 mM MOPS pH 7.5, 1 mM EDTA, 1 mM DTT, 5 mM MgCl2, 5% glycerol, 200 ng protein in 10 ul, 20 min room temperature; 6% PAGE. The note with it: chain copies: 12, label: 5' 32P, ss, 1 strand.

B1: T2 (ssDNA)
DNA: TGTTGTTGTTGTTGCCGTCTGAATTTGGTTCAGACGGCTGTTGTTGTTGTTG
Take B1: the binding result with PilQ25-354 (ss, 1 strand) is recorded as “binds”; in the data set with PilQ25-132 (ss, 1 strand), “no binding”; in the data set with PilQ352-761 (ss, 1 strand) it was “no binding”.
Take CCGCCGCCTGCCGTCTGAAAGATATTCAGACGGCATCGGC (ssDNA) [T7]: the binding result in the data set with PilQ25-354 (ss, 1 strand) is “binds”; with PilQ25-132 (ss, 1 strand), “no binding”; with PilQ352-761 (ss, 1 strand) it was “no binding”.

B2: T7+T8 hybrid (dsDNA)
DNA 1: CCGCCGCCTGCCGTCTGAAAGATATTCAGACGGCATCGGC
DNA 2: GCCGATGCCGTCTGAATATCTTTCAGACGGCAGGCGGCGG
For B2, the results for the binding result in the data set with PilQ25-354 (blunt) and in the data set with PilQ352-761 (blunt) were “binds” and “no binding”, respectively.

B3: T3 (ssDNA)
DNA: CAACAACAACAACAGGCCTGTCATCCAAAATGACAGGCCAACAACAACAACA
In the case of B3, the binding result with PilQ218-478 (ss, 1 strand) is “no binding”; in the data set with PilQ25-354 (ss, 1 strand) it was “binds”; with PilQ25-132 (ss, 1 strand), “no binding”; with PilQ352-761 (ss, 1 strand), “no binding”.

B4: T3+T4 hybrid (dsDNA)
DNA 1: CAACAACAACAACAGGCCTGTCATCCAAAATGACAGGCCAACAACAACAACA
DNA 2: TGTTGTTGTTGTTGGCCTGTCATTTTGGATGACAGGCCTGTTGTTGTTGTTG
Turning to B4, the binding result is “binds” in the data set with PilQ25-354 (blunt), “binds” with PilQ25-132 (blunt) and “no binding” with PilQ352-761 (blunt).
Consider GCCGATGCCGTCTGAATATCTTTCAGACGGCAGGCGGCGG (ssDNA) [T8], for which the binding result with PilQ218-478 (ss, 1 strand) is recorded as “no binding”; with PilQ25-354 (ss, 1 strand) it was “binds”; with PilQ352-761 (ss, 1 strand) it was “no binding”.

B5: T1 (ssDNA)
DNA: CAACAACAACAACAGCCGTCTGAACCAAATTCAGACGGCAACAACAACAACA
On to B5, for which the binding result in data set [1] was “binds”; with PilQ218-478 (ss, 1 strand), “no binding”; with PilQ25-354 (ss, 1 strand), “binds”; in the data set with PilQ25-132 (ss, 1 strand) it was “no binding”; with PilQ352-761 (ss, 1 strand) it was “no binding”.

B6: T1+T2 hybrid (dsDNA)
DNA 1: CAACAACAACAACAGCCGTCTGAACCAAATTCAGACGGCAACAACAACAACA
DNA 2: TGTTGTTGTTGTTGCCGTCTGAATTTGGTTCAGACGGCTGTTGTTGTTGTTG
For the molecule B6, the binding result with PilQ218-478 (blunt) is “no binding”; in the data set with PilQ25-354 (blunt) it was “binds”; with PilQ352-761 (blunt), “no binding”.

B7: T4 (ssDNA)
DNA: TGTTGTTGTTGTTGGCCTGTCATTTTGGATGACAGGCCTGTTGTTGTTGTTG
Take B7: the binding result in the data set with PilQ218-478 (ss, 1 strand) is “no binding”; with PilQ25-354 (ss, 1 strand), “binds”; in the data set with PilQ25-132 (ss, 1 strand), “no binding”; with PilQ352-761 (ss, 1 strand) it was “no binding”.

For the origin of these results see PMC2884949, “The outer membrane secretin PilQ from Neisseria meningitidis binds DNA”.
